# According to patent CN114835814A:
# Target: 人源PGII蛋白 (human pepsinogen II from human gastric mucosa, Lee Biosolutions, cat. 440-50) (human) (UniProt P20142)
# Assay: indirect ELISA, human-derived PGII coated 2 μg/mL, culture supernatant diluted 50-fold
# Chain of UniProt P20142 (P20142 17-388): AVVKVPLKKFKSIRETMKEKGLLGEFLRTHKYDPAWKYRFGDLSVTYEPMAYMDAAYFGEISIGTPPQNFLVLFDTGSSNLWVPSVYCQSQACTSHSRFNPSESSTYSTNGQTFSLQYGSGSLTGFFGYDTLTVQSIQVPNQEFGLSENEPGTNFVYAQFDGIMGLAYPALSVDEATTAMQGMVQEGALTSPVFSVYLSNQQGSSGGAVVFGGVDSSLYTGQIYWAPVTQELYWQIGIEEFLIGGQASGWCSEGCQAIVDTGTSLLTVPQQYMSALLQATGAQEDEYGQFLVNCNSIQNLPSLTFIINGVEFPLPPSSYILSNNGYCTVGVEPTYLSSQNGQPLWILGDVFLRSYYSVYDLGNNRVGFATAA
row,OD450 [OD450],Binder
1,1.7,"鼠单克隆抗体1A7 (antibody, V domains shown) VH: EVKLEESGGGLVQPGGSMKLSCVASGFAFSNYWMNWVRQSPEKGLEWVAEIRLKSNNYATHYAESVKGRFTISRDDSKSSVDLQMNNLRAEDTGTYYCNPFFYDYGYWGQGTTLTVSS VL: QIVLTQSPAILSASPGEKVTISCSASSSVSYMYWYQQKPGSSPKPWIYRTSNLASGVPARFSGSGSGTSYSLTISSMEAEDAATYYCQQYHSYPRTFGGGTKLEIK"
2,1.72,"鼠单克隆抗体3G10 (antibody, part only; not given: Light chain variable domain, V domains shown, part only) VH: EVQLQQSGAELVKPGASVKLSCTASGFNIKDSYIHWVTQRPDQGLEWIGMIDPTNDNIRYDPKFQGRATITADTSSNTAYLQLSSLTSEDTAVYFCARDGTSLDYWGQGTSLTVSS"
